The target of data set [1] is prothrombin (Sigma), a human blood coagulation factor (UniProt P00734).
The target of data set [2] is fibrinogen (MP Biomedicals), a human fibrin precursor (UniProt P02671).
Data set [3] deals with fibrin of the fibrin plate (fibrinogen converted with 40 units of thrombin).

For the substance “serine protease present in the venom of Bombus ignitus, activated form (Bi-VSP)”, the “human prothrombin activation by Bi-VSP, SDS-PAGE time course” value in data set [1] is listed as “prothrombin started to convert into an activated form of thrombin 5 min after the reaction”. For the same substance, in data set [2], the “human fibrinogen hydrolysis by Bi-VSP, SDS-PAGE time course (Aα chain)” value is “Aα chain was completely hydrolyzed within 5 min after the reaction”; the “human fibrinogen hydrolysis by Bi-VSP, SDS-PAGE time course (Bβ and γ chains)” value is “Bβ and γ chains were completely hydrolyzed within 60 min”. The “fibrin plate assay, fibrinolytic activity” value in data set [3] was “white zones for the fibirnolysis were formed according to each different concentration”.

The values are drawn from US20110195482.
